For assay [1], the target named is T1, recombinant HMG1 produced in E. coli as calmodulin binding protein (CBP) fusion (human).
T1 chain: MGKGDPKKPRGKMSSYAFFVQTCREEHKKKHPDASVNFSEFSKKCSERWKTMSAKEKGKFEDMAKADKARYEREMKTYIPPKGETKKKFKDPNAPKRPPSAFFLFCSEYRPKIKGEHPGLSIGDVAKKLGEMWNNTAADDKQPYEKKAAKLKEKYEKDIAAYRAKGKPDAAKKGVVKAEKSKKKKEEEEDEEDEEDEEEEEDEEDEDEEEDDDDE
Kind of assay: cell-based or functional assay.

Assay [2] deals with T1, recombinant HMG1 produced in E. coli as …. Kind of assay: BIAcore 3000; mAb amine-coupled to CM5, HMG1 injected in two-fold dilutions; steady-state model. How it is done:
HMG1 Binding Affinity via BIAcore Analysis: All experiments were performed on a BIAcore 3000 instrument (BIAcore, Inc., Piscataway, N.J.). Briefly, each mAb was immobilized to a CM5 sensor chip using a standard amine coupling chemistry. Separately a reference (control) flow cell was also prepared. Two-fold, serial dilutions of HMG1 in instrument buffer were sequentially injected at a slow flow rate over the individual mAb and reference flow-cell surfaces. Following the binding and dissociation of HMG1, the mAbs surfaces were regenerated with a brief pulse of 1M NaCl-50 mM NaOH. At the end of each experiment, the binding curves were evaluated using a steady-state model available through the BIAevaluation software supplied by BIAcore, Inc. (Piscataway, N.J.).
A general note: Surface plasmon resonance follows binding to a sensor surface in real time, without labels.

The target is the same in assay [3]. Kind of assay: ELISA; HMGB1 preincubated with antibody, then added to immobilised RAGE-Fc. How it is done: HMG1 binding to RAGE-Ig by ELISA: 50 μl/well of RAGE-Fc fusion protein at 5 μg/ml in PBS was added to each well of an ELISA plate and incubated overnight at 4° C. The plate was then blocked with 200 μl of 5% milk at 37° C. for 1 hr and washed 3× with PBS/Tween. 50 μl/well of diluted HMGB1 solution. For dose curves, HMGB1 concentrations started at 4 ug/ml in PBS. For antibody blocking the HMGB1 was preincubated in another plate with human anti-HMG1 antibodies or buffer, then transferred to the RAGE-coated plate. The plates were then incubated at room temperature for 2 hours and washed 3×. To detect any HMG1 bound to the immobilized RAGE-Fc a mixture of biotinylated mouse anti-HMG1 mAbs (10D4, 4H11, 3E10 and 5C12) each at 1 ug/ml, total Ab: 4 ug/ml, were added to each well and the plate was incubated for 1 hour at room temperature. The plate was then washed and Strepavidin-HPR was added to each well and incubated 15 min. The plate was then washed 3× and blotted dry. 100 μl of TMB developing agent was added and the plate read at 650 nm. Values were calculated as percent of inhibition with HMG1 alone equal to 0% inhibition. The data in FIG. 9 and summarized in Table 1 represent the average of two separate experiments.

B1: anti-HMG1 antibody G9 (antibody, V domains shown)
VH: EVQLLESGGGLVQPGGSLRLSCAASGFTFSSYDMFWVRQAPGKGLEWVSRISPSGGYTYYADSVKGRFTISRDNSKNTLYLQMNSLRAEDTAVYYCARLRYFDSRGYAFDIWGQGTMVTVSS
VL: DIQMTQSPGTLSLSPGERATLSCRASQSVRSSYLAWYQQKPGQAPRLLIYGASTRATGIPDRFSGSGSGTDFTLTISRLEPEDFAVYYCQQYGTSRWTFGQGTKVEIK
By Kd is commonly meant the equilibrium constant for the complex coming apart. As for B1, in assay [1], the “IC50, inhibition of rHMG1 stimulated IL-1β release from human PBMCs” value was determined as 0.211 µg/mL; the “IC50, inhibition of rHMG1 stimulated IL-6 release from human PBMCs” value was determined as 0.246 nM; the “IC50, inhibition of rHMG1 stimulated TNF-α release from human PBMCs” value came to 0.248 µg/mL. Further, in assay [2], the Kd came out at 125 nM.

B2: anti-HMG1 antibody G35 (antibody, V domains shown)
VH: EVQLLESGGGLVQPGGSLRLSCAASGFTFSWYKMVWVRQAPGKGLEWVSSIVPSGGITIYADSVKGRFTISRDNSKNTLYLQMNSLRAEDTAVYYCARVQQWLGRPYFDYWGQGTLVTVSS
VL: DIQMTQSPLSLPVTPGEPASISCRSSQSLLHGNGYNYLDWYLQRPGQSPQLLIYSGSNRASGVPDRFSGSGSGTDFTLKISRVEAEDVGVYYCMQSLQSRTFGQGTKVEIK
With B2, the “IC50, inhibition of rHMG1 stimulated IL-6 release from human PBMCs” value in assay [1] came out at 0.564 nM. Also, the dissociation constant Kd in assay [2] worked out at 242 nM.

B3: anti-HMG1 antibody G12 (antibody, V domains shown)
VH: EVQLLESGGGLVQPGGSLRLSCAASGFTFSYYMMTWVRQAPGKGLEWVSSISPSGGYTIYADSAKGRFTISRDNSKNTLYLQMNSLRAEDTAVYYCARALSTGSFWDYWGQGTLVTVSS
VL: DIQMTQSPGTLSLSPGERATLSCRASESLTSTYVAWYQHKPGQAPRLLIHGGSTRATGIPVRFSGSGSGTDFTLTIATLEPEDFAVYYCQQYGSSPYTFGQGTKLEIK
Consider B3, for which, in assay [1], the “IC50, inhibition of rHMG1 stimulated IL-1β release from human PBMCs” value amounted to 5.91 µg/mL; the “IC50, inhibition of rHMG1 stimulated IL-6 release from human PBMCs” value was 1.12 nM; the “IC50, inhibition of rHMG1 stimulated IL-12 release from human PBMCs” value worked out at 2.79 µg/mL; the “IC50, inhibition of rHMG1 stimulated TNF-α release from human PBMCs” value turned out to be 0.796 µg/mL. Moreover, the dissociation constant Kd in assay [2] came to 73 nM.

B4: anti-HMG1 antibody S12 (antibody, V domains shown)
VH: EVQLLESGGGLVQPGGSLRLSCAASGFTFSKYIMHWVRQAPGKGLEWVSGIVPSGGLTEYADSVKGRFTISRDNSKNTLYLQMNSLRAEDTATYYCAKEIFGQFDYWGQGTLVTVSS
VL: AQSALTQPPSVSAAPRQRVTISCSGSTSNIGNNAVTWYQYFPGKAPKLLIYSDNQRPSGVPDRFSGSKSGTSASLAITGLQAEDEADYYCQSYDRGLSVVFGGGTKLTVL
Consider B4, for which the “IC50, inhibition of rHMG1 stimulated IL-6 release from human PBMCs” value in assay [1] came to 1.67 nM.

B5: anti-HMG1 antibody E11 (antibody, V domains shown)
VH: EVQLLESGGGLVQPGGSLRLSCAASGFTFSRYQMNWVRQAPGKGLEWVSSISPSGGHTHYADSVKGRFTISRDNSKNTLYLQMNSLRAEDTAVYYCAKDGRQGKISTVDHWGQGTLVTVSS
VL: DIQMTQSPGTLSLSPGERATLSCRASQSVRSNFLAWYQQKPGQAPRLLIYGASRRASGIPDRFSGSGFGADFTLSISRLEPEDFAVYYCQQYGSSPNTFGQGSRVEIK
For the molecule B5, in assay [1], the “IC50, inhibition of HMG1 stimulated NO release from macrophages” value came out at 101 µg/mL and the “IC50, inhibition of rHMG1 stimulated IL-6 release from human PBMCs” value is 1.22 nM.

B6: anti-HMG1 antibody S17 (antibody, V domains shown)
VH: EVQLLESGGGLVQPGGSLRLSCAASGFTFSYYDMHWVRQAPGKGLEWVSRISPSGGYTWYADSVKGRFTISRDNSKNTLYLQMNSLRAEDTAVYYCTRGRYTSGWHEYFDPWGQGTLVTVSS
VL: DIQMTQSPSSLSASVGDRVTITCRASQSIGTYLNWYQQKPGTAPKVLIYAASSLQSGVPSRFSGSGSGTDFTLTISSLQPEDFSTYYCQQSYNTPRTFGQGTKLEIK
On to B6, for which, in assay [1], the “IC50, inhibition of HMG1 stimulated NO release from macrophages” value was 41.7 µg/mL; the “IC50, inhibition of rHMG1 stimulated IL-1β release from human PBMCs” value was 0.0809 µg/mL; the “IC50, inhibition of rHMG1 stimulated IL-6 release from human PBMCs” value was 0.162 nM.

B7: anti-HMG1 antibody G16 (antibody, V domains shown)
VH: EVQLLESGGGLVQPGGSLRLSCAASGFTFSWYKMTWVRQAPGKGLEWVSSISPSGGFTSYADSVKGRFTISRDNSKNTLYLQMNSLRAEDTAVYYCARDLDIRHAFDIWGQGTMVTVSS
VL: DIQMTQSPGTLSLSPGESGTLSCRASESVSSRHFAWYQQKPGQAPRLLIYGASSRPTGIPDRFSGSGSGTDFTLTLSRLEPEDFAVYFCQYYGSSPYTFGGGTKVEMK
Consider B7, for which, in assay [1], the “IC50, inhibition of HMG1 stimulated NO release from macrophages” value amounted to 22 µg/mL and the “IC50, inhibition of rHMG1 stimulated IL-6 release from human PBMCs” value was 1.06 nM. For the same molecule, the equilibrium dissociation constant (Kd) in assay [2] amounted to 22 nM.

B8: anti-HMG1 antibody G2 (antibody, V domains shown)
VH: EVQLLESGGGLVQPGGSLRLSCAASGFTFSWYKMQWVRQAPGKGLEWVSGISPSGGSTAYADSVKGRFTISRDNSKNTLYLQMNSLRAEDTAVYYCAKMGLFNTGNSYVDYWGQGTLVTVSS
VL: AQSELTQPPSVSEAPGQRVTISCSGSTSNIGNNAVIWYQQLPGKAPKLLIYYDDLLPSGVSDRFSGSKSGTSGSLAISGLQSEDEADYYCASWDDNLNGPLFGGGTKLTVL
B8: in assay [1], the “IC50, inhibition of rHMG1 stimulated IL-1β release from human PBMCs” value came out at 5.03 µg/mL; the “IC50, inhibition of rHMG1 stimulated IL-6 release from human PBMCs” value turned out to be 0.994 nM; the “IC50, inhibition of rHMG1 stimulated IL-12 release from human PBMCs” value was 1.26 µg/mL; the “IC50, inhibition of rHMG1 stimulated TNF-α release from human PBMCs” value worked out at 1.35 µg/mL.

B9: anti-HMG1 antibody S14 (antibody, V domains shown)
VH: EVQLLESGGGLVQPGGSLRLSCAASGFTFSWYETGWVRQAPGKGLEWVSGISPSGGYTQYADSVKGRFTISRDNSKNTLYLQMNSLRAEDTAVYYCARSGVGATKIFDYWGQGTLVTVSS
VL: DIQMTQSPSSLSASVGDRVTIICRANERINTYLNWYQQKPGKAPKLLISGTSSLESGVPSRFSGSGSGTEFTLSISSLQPEDFASYYCQQSYSSPYTFGQGTNLEIR
With B9, in assay [1], the “IC50, inhibition of rHMG1 stimulated IL-1β release from human PBMCs” value is 0.0678 µg/mL; the “IC50, inhibition of rHMG1 stimulated IL-6 release from human PBMCs” value stood at 0.191 nM; the “IC50, inhibition of rHMG1 stimulated TNF-α release from human PBMCs” value worked out at 0.0662 µg/mL. In addition, the Kd in assay [2] turned out to be 205 nM.

B10: anti-HMG1 antibody S6 (antibody, V domains shown)
VH: EVQLLESGGGLVQPGGSLRLSCAASGFTFSWYDMSWVRQAPGKGLEWVSRISPSGGYTMYADSVKGRFTISRDNSKNTLYLQMNSLRAEDTAVYYCARLEVGATSGGTAFDIWGQGTMVTVSS
VL: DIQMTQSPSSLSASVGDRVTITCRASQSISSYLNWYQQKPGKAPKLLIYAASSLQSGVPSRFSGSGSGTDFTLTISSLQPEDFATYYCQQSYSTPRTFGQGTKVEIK
notes: also called ATCC PTA-6143
In the case of B10, in assay [1], the “IC50, inhibition of HMG1 stimulated NO release from macrophages” value was determined as 4.15 µg/mL; the “IC50, inhibition of rHMG1 stimulated IL-1β release from human PBMCs” value was 0.0232 µg/mL; the “IC50, inhibition of rHMG1 stimulated IL-6 release from human PBMCs” value stood at 0.174 nM; the “IC50, inhibition of rHMG1 stimulated TNF-α release from human PBMCs” value turned out to be 0.0182 µg/mL. For the same molecule, the “percent inhibition of HMG1 binding to RAGE” value in assay [3] was at least 35%. Moreover, the Kd in assay [2] was found to be 39 nM.

B11: anti-HMG1 antibody G20 (antibody, V domains shown)
VH: EVQLLESGGGLVQPGGSLRLSCAASGFTFSWYDMFWVRQAPGKGLEWVSWISPSGGYTKYADSVKGRFTISRDNSKNTLYLQMNSLRAEDTAMYYCARSGLDYYDSSGYLDAFDIWGQGTMVTVSS
VL: DIQMTQSPSSVSASVGDRVTITCRASQDVSIWLAWYQQKPGKAPKLLIFGASRLQSGVPSRFSGSRSGADFTLTIDSVQPEDFASYYCQQADSFPLTFGGGTKVEIK
With B11, in assay [1], the “IC50, inhibition of HMG1 stimulated NO release from macrophages” value was determined as 20.4 µg/mL; the “IC50, inhibition of rHMG1 stimulated IL-1β release from human PBMCs” value was 0.4 µg/mL; the “IC50, inhibition of rHMG1 stimulated IL-6 release from human PBMCs” value is 0.652 nM; the “IC50, inhibition of rHMG1 stimulated TNF-α release from human PBMCs” value came out at 0.598 µg/mL.

B12: anti-HMG1 antibody G34 (antibody, V domains shown)
VH: EVQLLESGGGLVQPGGSLRLSCAASGFTFSHYMMGWVRQAPGKGLEWVSRISPSGGGTVYADSVKGRFTISRDNSKNTLYLQMNSLRAEDTAVYYCARGGNWNYISYYYYYLDVWGKGTTVTVSS
VL: DIQMTQSPSSLSASVGDRVAITCRASQSIDTYLNWYQQKPGKAPKLLIYAASKLEDGVPSRFSGSGTGTDFTLTIRSLQPEDFASYFCQQSYSSPGITFGPGTKVEIK
With B12, the “IC50, inhibition of rHMG1 stimulated IL-6 release from human PBMCs” value in assay [1] came out at 0.858 nM. Besides, the equilibrium dissociation constant (Kd) in assay [2] worked out at 67 nM.

Source of the values: patent US20090169546A1 (published 2009).
